The text below walks through data of IntAct's records for PubMed 20300064.

Sequences and labels used below:
B1: Rho guanine nucleotide exchange factor 11 (Homo sapiens), O15085 (parent)
chain: MSVRLPQSIDRLSSLSSLGDSAPERKSPSHHRQPSDASETTGLVQRCVIIQKDQHGFGFTVSGDRIVLVQSVRPGGAAMKAGVKEGDRIIKVNGTMVTNSSHLEVVKLIKSGAYVALTLLGSSPSSMGISGLQQDPSPAGAPRITSVIPSPPPPPPLPPPQRITGPKPLQDPEVQKHATQILRNMLRQEEKELQDILPLYGDTSQRPSEGRLSLDSQEGDSGLDSGTERFPSLSESLMNRNSVLSDPGLDSPRTSPVIMARVAQHHRRQGSDAAVPSTGDQGVDQSPKPLIIGPEEDYDPGYFNNESDIIFQDLEKLKSRPAHLGVFLRYIFSQADPSPLLFYLCAEVYQQASPKDSRSLGKDIWNIFLEKNAPLRVKIPEMLQAEIDSRLRNSEDARGVLCEAQEAAMPEIQEQIHDYRTKRTLGLGSLYGENDLLDLDGDPLRERQVAEKQLAALGDILSKYEEDRSAPMDFALNTYMSHAGIRLREARPSNTAEKAQSAPDKDKWLPFFPKTKKSSNSKKEKDALEDKKRNPILKYIGKPKSSSQSTFHIPLSPVEVKPGNVRNIIQHFENNQQYDAPEPGTQRLSTGSFPEDLLESDSSRSEIRLGRSESLKGREEMKRSRKAENVPRSRSDVDMDAAAEATRLHQSASSSTSSLSTRSLENPTPPFTPKMGRRSIESPSLGFCTDTLLPHLLEDDLGQLSDLEPEPDAQNWQHTVGKDVVAGLTQREIDRQEVINELFVTEASHLRTLRVLDLIFYQRMKKENLMPREELARLFPNLPELIEIHNSWCEAMKKLREEGPIIKEISDLMLARFDGPAREELQQVAAQFCSYQSIALELIKTKQRKESRFQLFMQEAESHPQCRRLQLRDLIISEMQRLTKYPLLLESIIKHTEGGTSEHEKLCRARDQCREILKYVNEAVKQTENRHRLEGYQKRLDATALERASNPLAAEFKSLDLTTRKMIHEGPLTWRISKDKTLDLHVLLLEDLLVLLQKQDEKLLLKCHSKTAVGSSDSKQTFSPVLKLNAVLIRSVATDKRAFFIICTSKLGPPQIYELVALTSSDKNTWMELLEEAVRNATRHPGAAPMPVHPPPPGPREPAQQGPTPSRVELDDSDVFHGEPEPEELPGGTGSQQRVQGKHQVLLEDPEQEGSAEEEELGVLPCPSTSLDGENRGIRTRNPIHLAFPGPLFMEGLADSALEDVENLRHLILWSLLPGHTMETQAAQEPEDDLTPTPSVISVTSHPWDPGSPGQAPPGGEGDNTQLAGLEGERPEQEDMGLCSLEHLPPRTRNSGIWESPELDRNLAEDASSTEAAGGYKVVRKAEVAGSKVVPALPESGQSEPGPPEVEGGTKATGNCFYVSMPSGPPDSSTDHSEAPMSPPQPDSLPAGQTEPQPQLQGGNDDPRRPSRSPPSLALRDVGMIFHTIEQLTLKLNRLKDMELAHRELLKSLGGESSGGTTPVGSFHTEAARWTDGSLSPPAKEPLASDSRNSHELGPCPEDGSDAPLEDSTADAAASPGP

One test covers variants of B1. The conditions noted are these: with rhoa_human RHOA.
Turning to R872D, the “effect of a mutation on the interaction” value is “disrupting interaction”.

Consider D873N, for which the “effect of a mutation on the interaction” value was “disrupting interaction”.

For the variant I876M, the “effect of a mutation on the interaction” value is listed as “disrupting interaction”.

The variants in a further test derive from B1. The settings on record: with rhoa_human RHOA. The source holds these as a separate data set.
On to S748A, for which the “effect of a mutation on the interaction” value is on record as “decreasing interaction”.

E741N: the “effect of a mutation on the interaction” value is listed as “decreasing interaction”.

Variants of B1 are the subject of another test. The settings on record: with rhoa_human RHOA. The source holds these as a separate data set.
Regarding E928A, the “effect of a mutation on the interaction” value is given as “disrupting interaction”.

The variants in another test derive from B1. The settings on record: with rhoa_human RHOA. The source holds these as a separate data set.
With R868G, the “effect of a mutation on the interaction” value is listed as “disrupting interaction”.

R867Q: the “effect of a mutation on the interaction” value is on record as “disrupting interaction”.

Turning to L869A, the “effect of a mutation on the interaction” value is reported as “disrupting interaction”.
